T1: IFN-αF (human, UniProt P01568 24-189)
T1 chain: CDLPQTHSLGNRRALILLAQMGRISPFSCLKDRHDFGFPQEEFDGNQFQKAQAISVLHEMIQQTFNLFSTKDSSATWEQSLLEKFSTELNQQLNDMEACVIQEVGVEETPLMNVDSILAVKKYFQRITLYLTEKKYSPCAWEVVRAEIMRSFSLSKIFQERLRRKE

B1: IFWM3331 (antibody, IgG1, V domains shown)
VH: EVQLVQSGAEVKKPGESLKISCKGSGYSFTSYWIGWVRQMPGKGLEWMGIIDPSDSDTRYSPSFQGQVTISADKSISTAYLQWSSLKASDTAMYYCARHPGLNWAPDFDYWGQGTLVTVSS
VL: DIQMTQSPSSLSASVGDRVTITCRASQSIDNSYLNWYQQKPGKAPKLLIYGASSLQSGVPSRFSGSGSGTDFTLTISSLQPEDFATYYCQQGWDWPLTFGQGTKVEIK
B2: IFWM3328 (antibody, IgG1, V domains shown)
VH: B1 VH
VL: DIQMTQSPSSLSASVGDRVTITCRASQSINNLNWYQQKPGKAPKLLIYWASSLQSGVPSRFSGSGSGTDFTLTISSLQPEDFATYYCQQGYDTPFTFGQGTKVEIK
B3: IFWM3320 (antibody, IgG1, V domains shown)
VH: B1 VH
VL: DIQMTQSPSSLSASVGDRVTITCRASQSINGVLNWYQQKPGKAPKLLIYFASSLQSGVPSRFSGSGSGTDFTLTISSLQPEDFATYYCQQSHDFPLTFGQGTKVEIK
B4: IFWM3332 (antibody, IgG1, V domains shown)
VH: B1 VH
VL: B1 VL with D30A, S32T, Y33N, Y50H, G51W, G92W, W93Y, W95N
B5: IFWM3423 (antibody, IgG1, V domains shown)
VH: B1 VH with N103A
VL: B3 VL with N30D, V32F, H92Y, F94L, L96I
B6: IFWM3310 (antibody, IgG1, V domains shown)
VH: B1 VH
VL: B3 VL with N30G, G31K, V32S, H92Y
B7: IFWM3304 (antibody, IgG1, V domains shown)
VH: B1 VH
VL: B3 VL with N30G, G31S, V32A, H92Y
B8: IFWM3308 (antibody, IgG1, V domains shown)
VH: B1 VH
VL: B3 VL with N30A, G31E, V32F, H92I
B9: IFWM371 (antibody, IgG1, V domains shown)
VH: B1 VH
VL: not shown
B10: IFWM3322 (antibody, IgG1, V domains shown)
VH: B1 VH
VL: B3 VL with N30A, G31D, V32F, D93S
B11: IFWM3307 (antibody, IgG1, V domains shown)
VH: B1 VH
VL: B3 VL with N30G, G31D, V32F, S91A, H92L
B12: IFWM3321 (antibody, IgG1, V domains shown)
VH: B1 VH
VL: B3 VL with N30D, V32A, S91A, H92Y
B13: IFWM3314 (antibody, IgG1, V domains shown)
VH: B1 VH
VL: B3 VL with N30D, G31R, V32A, H92F
B14: IFWM3421 (antibody, IgG1, V domains shown)
VH: B1 VH
VL: B3 VL with N30D, V32F, H92Y, F94L, L96I
B15: IFWM3413 (antibody, IgG1, V domains shown)
VH: B1 VH with N103A
VL: B2 VL with N31Y, W49G, G90S, Y91H, T93W, F95I
notes: mAb; IgG1/kappa said of the parent and of selected mAbs; also called IFWB3148
B16: IFWM3406 (antibody, IgG1, V domains shown)
VH: B1 VH with N103A
VL: B2 VL
notes: mAb; IgG1/kappa said of the parent and of selected mAbs; also called IFWB3141
B17: IFWM3417 (antibody, IgG1, V domains shown)
VH: B1 VH with N103A
VL: B1 VL with D30A, S32N, Y33D, Y50H, G51W, G92D, W93Y
notes: mAb; IgG1/kappa said of the parent and of selected mAbs; also called IFWB3152
B18: IFWM3409 (antibody, IgG1, V domains shown)
VH: B1 VH with N103A
VL: B1 VL
notes: mAb; IgG1/kappa said of the parent and of selected mAbs; also called IFWB3144
B19: IFWM3414 (antibody, IgG1, V domains shown)
VH: B1 VH with N103A
VL: B1 VL with D30R, S32N, G51A, W93Y, W95T
notes: mAb; IgG1/kappa said of the parent and of selected mAbs; also called IFWB3149
B20: IFWM3415 (antibody, IgG1, V domains shown)
VH: B1 VH with N103A
VL: B1 VL with D30S, Y33N, Y50H, G51W, G92W, W93Y, W95H
notes: mAb; IgG1/kappa said of the parent and of selected mAbs; also called IFWB3150
B21: IFWM3411 (antibody, IgG1, V domains shown)
VH: B1 VH with N103A
VL: B1 VL with S32N, Y33N, G51A, W93Y
notes: mAb; IgG1/kappa said of the parent and of selected mAbs; also called IFWB3146

The term Kd denotes the constant that tells how readily two partners part at equilibrium.

Positions count from the first letter of the chain named.

The target in the first assay is IFN-αH2 (human, UniProt P01570 24-189). The assay can be described thus: cell-based or functional assay.
Regarding B1, the “IC50, ISRE assay” value worked out at 0.033 nM.
For B2, the “IC50, ISRE assay” value amounted to 0.44 nM.
The same measure, in the same setting: the figure for B3 is 0.023 nM; for B4 it is 0.092 nM.
In the case of B5, the “IC50, ISRE assay” value amounted to 0.004 nM.
For the molecule B6, the “IC50, ISRE assay” value came to 0.045 nM.
The same measure, in the same setting: the value for B7 was 0.042 nM.
On the same count and under the same terms, the value for B8 was 0.032 nM.
On the same count and under the same terms, the figure for B9 is 9.6 nM; for B10 it is 0.046 nM.
Regarding B11, the “IC50, ISRE assay” value was 0.088 nM.
On the same count and under the same terms, the figure for B12 is 0.028 nM; for B13 it is 0.04 nM; for B14 it is 0.008 nM.

In the next assay the target is T2, IFN-αC (human, UniProt P01566 24-189). The assay can be described thus: cell-based or functional assay.
For B1, the “IC50, ISRE assay” value was determined as 0.098 nM.
On the same count and under the same terms, the figure for B2 is 1.42 nM.
Still for that read-out and setting: the figure for B3 is 0.392 nM; for B4 it is 0.479 nM.
Same read-out and setting: the value for B5 was 0.012 nM.
B6: the “IC50, ISRE assay” value worked out at 0.196 nM.
On the same count and under the same terms, the value for B7 was 0.117 nM; that for B8 was 0.996 nM; that for B9 was 53.9 nM.
With B10, the “IC50, ISRE assay” value amounted to 0.306 nM.
On the same count and under the same terms, the figure for B11 is 0.583 nM.
Same read-out and setting: the value for B12 was 0.266 nM; that for B13 was 0.157 nM.
Same read-out and setting: the figure for B14 is 0.02 nM.

The target in a further assay is T1, IFN-αF. The assay can be described thus: cell-based or functional assay.
For the molecule B1, the “IC50, ISRE assay” value was 0.048 nM.
Same read-out and setting: the figure for B2 is 0.631 nM; for B3 it is 0.054 nM; for B4 it is 0.228 nM.
Same read-out and setting: the value for B5 was 0.008 nM.
Still for that read-out and setting: the figure for B6 is 0.111 nM; for B7 it is 0.062 nM.
B8: the “IC50, ISRE assay” value came to 0.155 nM.
In the case of B9, the “IC50, ISRE assay” value turned out to be 16 nM.
Still for that read-out and setting: the value for B10 was 0.117 nM; that for B11 was 0.17 nM; that for B12 was 0.054 nM.
Still for that read-out and setting: the value for B13 was 0.058 nM; that for B14 was 0.011 nM.

Another assay concerns the target T3, IFN-αG (human, UniProt P01569 24-189). The assay can be described thus: cell-based or functional assay.
With B1, the “IC50, ISRE assay” value turned out to be 0.027 nM.
Same read-out and setting: the value for B2 was 0.486 nM.
The same measure, in the same setting: the value for B3 was 0.082 nM; that for B4 was 0.099 nM; that for B5 was 0.009 nM.
B6: the “IC50, ISRE assay” value is 0.073 nM.
Same read-out and setting: the figure for B7 is 0.047 nM.
Same read-out and setting: the figure for B8 is 0.167 nM; for B9 it is 12.9 nM; for B10 it is 0.083 nM.
On the same count and under the same terms, the figure for B11 is 0.095 nM; for B12 it is 0.034 nM; for B13 it is 0.057 nM.
As to B14, the “IC50, ISRE assay” value stood at 0.018 nM.

The next assay addresses T4, IFN-αJ1 (human, UniProt P01567 24-189).
T4 construct: Recombinant, HEK293; also called IFN-α7
The assay can be described thus: ProteOn SPR, cell supernatant.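 Note: each binding measurement used just a single antigen concentration.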
Excerpt: (§1) To increase the assay throughput, only one concentration of the individual antigen was used.
Turning to B15, the Kd came out at 0.15 nM.
On the same count and under the same terms, the value for B16 was 0.119 nM; that for B17 was 0.07 nM; that for B18 was 0.041 nM.
On the same count and under the same terms, the value for B19 was 0.174 nM.
Still for that read-out and setting: the value for B20 was 0.051 nM; that for B21 was 0.151 nM.

In another assay the target is T5, IFN-αWA (human, UniProt P05015 24-189).
T5 construct: Recombinant, HEK293; also called IFN-α16
The assay can be described thus: ProteOn SPR, cell supernatant.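 Note: each binding measurement used just a single antigen concentration.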
Excerpt: as §1
B15: the Kd was 0.085 nM.
On the same count and under the same terms, the value for B16 was 0.063 nM; that for B17 was 0.059 nM.
The same measure, in the same setting: the value for B18 was 0.025 nM; that for B19 was 0.07 nM; that for B20 was 0.044 nM.
On the same count and under the same terms, the value for B21 was 0.087 nM.

For another assay, the target named is T6, IFN-α4a (human, UniProt P05014 24-189).
T6 construct: Recombinant, HEK293; also called IFN-αM1
The assay can be described thus: ProteOn SPR, cell supernatant.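 Note: each binding measurement used just a single antigen concentration.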
Excerpt: as §1
B15 returned a Kd of 0.206 nM.
Consider B16, for which the Kd was found to be 0.135 nM.
Still for that read-out and setting: the figure for B17 is 0.1 nM; for B18 it is 0.058 nM; for B19 it is 0.193 nM.
Same read-out and setting: the value for B20 was 0.069 nM; that for B21 was 0.101 nM.

The target in another assay is T2, IFN-αC. The assay can be described thus: ProteOn SPR, cell supernatant.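 Note: each binding measurement used just a single antigen concentration.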
Excerpt: as §1
B15 yielded a Kd of 0.037 nM.
Same read-out and setting: the value for B16 was 0.037 nM.
B17 came in with a Kd of 0.031 nM.
Same read-out and setting: the value for B18 was 0.011 nM.
Same read-out and setting: the figure for B19 is 0.068 nM.
Same read-out and setting: the value for B20 was 0.019 nM; that for B21 was 0.023 nM.

A further assay deals with T1, IFN-αF. The assay can be described thus: ProteOn SPR, cell supernatant.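 Note: each binding measurement used just a single antigen concentration.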
Excerpt: as §1
B15 returned a Kd of 0.033 nM.
On the same count and under the same terms, the figure for B16 is 0.037 nM; for B17 it is 0.039 nM.
Still for that read-out and setting: the value for B18 was 0.009 nM; that for B19 was 0.101 nM; that for B20 was 0.026 nM.
Regarding B21, binding was put at a Kd of 0.037 nM.

The next assay has as its target T3, IFN-αG. The assay can be described thus: ProteOn SPR, cell supernatant.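 Note: each binding measurement used just a single antigen concentration.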
Excerpt: as §1
For the molecule B15, the Kd came to 0.044 nM.
Same read-out and setting: the figure for B16 is 0.037 nM; for B17 it is 0.03 nM.
The same measure, in the same setting: the figure for B18 is 0.005 nM; for B19 it is 0.033 nM.
The same measure, in the same setting: the value for B20 was 0.026 nM.
In turn, B21 came in with a Kd of 0.035 nM.

In a further assay the target is T7, human IFN-ω (human, UniProt P05000 24-195).
T7 construct: Recombinant, HEK293; also called interferon omega
The assay can be described thus: ProteOn SPR, cell supernatant.
Excerpt: as §1
Molecule B15 registered a Kd of 0.047 nM.
Same read-out and setting: the figure for B16 is 0.078 nM; for B17 it is 0.029 nM; for B18 it is 0.014 nM.
Still for that read-out and setting: the value for B19 was 0.058 nM; that for B20 was 0.018 nM.
Still for that read-out and setting: the value for B21 was 0.028 nM.

The record behind these values is patent US20150368338A1 (Janssen / Centocor, published 2015).
